Test results: patent US20200317768A1 (published 2020)

T1: cynomolgus monkey FcγRIIb extracellular domain, His-tagged (cynomolgus monkey)
T1 construct: also called cyno FcγRIIb; cynoFcγRIIb; not shown: C-terminal His-tag
T1 chain: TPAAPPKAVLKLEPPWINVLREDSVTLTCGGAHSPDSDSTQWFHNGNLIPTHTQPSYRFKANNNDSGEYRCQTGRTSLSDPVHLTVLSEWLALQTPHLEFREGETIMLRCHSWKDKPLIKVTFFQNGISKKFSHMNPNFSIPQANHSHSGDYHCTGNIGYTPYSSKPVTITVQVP

T2: cynomolgus monkey FcγRIIa1 extracellular domain, His-tagged (cynomolgus monkey)
T2 construct: also called cyno FcγRIIa1; FcgRIIa1; not shown: C-terminal His-tag
T2 chain: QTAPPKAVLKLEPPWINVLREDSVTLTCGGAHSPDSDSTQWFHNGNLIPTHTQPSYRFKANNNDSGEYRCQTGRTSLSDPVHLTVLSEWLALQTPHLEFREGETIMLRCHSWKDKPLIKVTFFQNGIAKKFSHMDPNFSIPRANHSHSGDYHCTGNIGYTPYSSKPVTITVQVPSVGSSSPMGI

T3: human FcγRIIb extracellular domain, His-tagged (human, UniProt P31994 43-217)
T3 construct: also called FcgRIIb (human); not shown: C-terminal His-tag
T3 sequence: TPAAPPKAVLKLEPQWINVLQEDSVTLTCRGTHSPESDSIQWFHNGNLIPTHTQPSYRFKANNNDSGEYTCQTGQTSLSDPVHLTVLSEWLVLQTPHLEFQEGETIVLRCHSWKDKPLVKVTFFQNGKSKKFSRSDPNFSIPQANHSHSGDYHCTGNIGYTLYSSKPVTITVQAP

T4: cynomolgus monkey FcγRIIa3 extracellular domain, His-tagged (cynomolgus monkey)
T4 construct: also called cyno FcγRIIa3; FcgRIIa3; not shown: C-terminal His-tag
T4 chain: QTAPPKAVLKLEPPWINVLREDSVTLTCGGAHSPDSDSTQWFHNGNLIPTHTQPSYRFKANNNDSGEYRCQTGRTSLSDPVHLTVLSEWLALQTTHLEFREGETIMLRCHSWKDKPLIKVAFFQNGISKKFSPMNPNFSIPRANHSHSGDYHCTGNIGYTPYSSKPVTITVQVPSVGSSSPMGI

T5: cynomolgus monkey FcγRIIa2 extracellular domain, His-tagged (cynomolgus monkey)
T5 construct: also called cyno FcγRIIa2; FcgRIIa2; not shown: C-terminal His-tag
T5 chain: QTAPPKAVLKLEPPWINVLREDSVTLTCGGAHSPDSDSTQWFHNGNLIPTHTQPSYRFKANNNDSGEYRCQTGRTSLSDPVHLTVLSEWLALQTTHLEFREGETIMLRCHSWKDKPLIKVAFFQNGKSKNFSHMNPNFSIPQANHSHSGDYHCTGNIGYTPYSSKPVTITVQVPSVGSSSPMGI

T6: human FcγRIIaH extracellular domain, His-tagged (human, UniProt P12318 34-217)
T6 construct: also called human FcγRIIa (type H); FcgRIIaH; not shown: C-terminal His-tag
T6 sequence: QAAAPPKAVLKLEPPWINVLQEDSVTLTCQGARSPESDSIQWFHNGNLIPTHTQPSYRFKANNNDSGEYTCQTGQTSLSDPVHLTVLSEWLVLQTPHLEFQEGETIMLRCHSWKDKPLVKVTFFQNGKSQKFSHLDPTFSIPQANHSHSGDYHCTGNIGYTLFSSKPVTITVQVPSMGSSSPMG

T7: human FcγRIIaR extracellular domain, His-tagged (human, UniProt P12318 34-217)
T7 construct: also called human FcγRIIa (type R); FcgRIIaR; not shown: C-terminal His-tag
T7 chain: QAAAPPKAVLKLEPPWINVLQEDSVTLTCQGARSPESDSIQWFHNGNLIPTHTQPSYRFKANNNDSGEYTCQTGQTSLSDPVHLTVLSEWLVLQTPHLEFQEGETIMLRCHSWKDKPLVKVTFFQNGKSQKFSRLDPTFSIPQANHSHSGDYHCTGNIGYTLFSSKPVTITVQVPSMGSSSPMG

T8: cynomolgus monkey FcγRIIIaS extracellular domain, His-tagged (cynomolgus monkey, UniProt Q8SPW2 21-206 at identity 1.00))
T8 construct: also called cyno FcγRIIIaS; FcgRIIIaS; not shown: C-terminal His-tag
T8 chain: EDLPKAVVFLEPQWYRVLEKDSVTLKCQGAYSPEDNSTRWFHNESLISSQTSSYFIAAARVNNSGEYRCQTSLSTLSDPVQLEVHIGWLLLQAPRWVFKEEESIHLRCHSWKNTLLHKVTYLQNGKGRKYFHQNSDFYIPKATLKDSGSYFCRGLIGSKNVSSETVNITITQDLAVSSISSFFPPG


How the values were obtained:
Assay in all cases: SPR (BIACORE), 25 C, antibody captured, FcgR as analyte; KD of SG1 divided by KD of variant;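 further: relative to parent M103205H795-SG1 carrying the SG1 human heavy chain constant region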
[1] = molecular target: T1, cynomolgus monkey FcγRIIb extracellular …
Protocol: (§1) The kinetic analysis of interactions between these antibodies and FcγR was carried out using BIACORE® T200 or BIACORE® 4000 (GE Healthcare). HBS-EP+ (GE Healthcare) was used as the running buffer, and the measurement temperature was set to 25° C. A chip produced by immobilizing Protein A. Protein A/G or mouse anti-human IgG kappa light chain (BD Biosciences) onto a Series S Sensor Chip CM4 or CM5 (GE Healthcare) by the amine-coupling method was used. […] After the measurement, the antibody captured on the chip was washed off by allowing reaction with 10 mM glycine-HCl, pH1.5 and 25 mM NaOH so that the chip was regenerated and used repeatedly. The sensorgrams obtained as measurement results were analyzed by the 1:1 Langmuir binding model using the BIACORE® Evaluation Software to calculate the binding rate constant ka (L/mol/s) and dissociation rate constant kd (l/s), and the dissociation constant KD (mol/L) was calculated from these values. […] Regarding such interactions, KD values were calculated using the following 1:1 binding model described in BIACORE® T100 Software Handbook BR1006-48 Edition AE.

[2] = molecular target: T2, cynomolgus monkey FcγRIIa1 …
Protocol: as §1

[3] = molecular target: T3, human FcγRIIb extracellular domain, …
Protocol: as §1

[4] = molecular target: T4, cynomolgus monkey FcγRIIa3 …
Protocol: as §1

[5] = molecular target: T9, human FcγRIIIaV extracellular domain, His-tagged (human, UniProt P08637 17-208)
T9 construct: also called human FcγRIIIa (V158); FcgRIIIaV; not shown: C-terminal His-tag
T9 sequence (P08637 17-208 F176V): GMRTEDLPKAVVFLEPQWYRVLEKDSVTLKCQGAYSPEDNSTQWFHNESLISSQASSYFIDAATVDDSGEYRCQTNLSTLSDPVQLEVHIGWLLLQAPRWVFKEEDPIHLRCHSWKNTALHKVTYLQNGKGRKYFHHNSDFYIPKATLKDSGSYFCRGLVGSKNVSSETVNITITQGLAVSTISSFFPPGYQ
Protocol: as §1

[6] = molecular target: T5, cynomolgus monkey FcγRIIa2 …
Protocol: as §1

[7] = molecular target: T6, human FcγRIIaH extracellular domain, …
Protocol: as §1

[8] = molecular target: T7, human FcγRIIaR extracellular domain, …
Protocol: as §1

[9] = molecular target: T8, cynomolgus monkey FcγRIIIaS …
Protocol: as §1

Row | KD fold (SG1 = 1) [1] [fold] | KD fold (SG1 = 1) [2] [fold] | KD fold (SG1 = 1) [3] [fold] | KD fold (SG1 = 1) [4] [fold] | KD fold (SG1 = 1) [5] [fold] | KD fold (SG1 = 1) [6] [fold] | KD fold (SG1 = 1) [7] [fold] | KD fold (SG1 = 1) [8] [fold] | KD fold (SG1 = 1) [9] [fold] | Binder
1 | 7.8 | 3.7 | 15.9 | 11.3 | 0.3 | 5.4 | 7 | 14.9 | 0.4 | M103205H795-MY449 / M103202L889-SK1 (antibody, human IgG1, kappa) heavy: QVTLKESGPVLVKPTETLTLTCTVSGIDLSHDDISWVRQAPGKGLEWVGIISYAGSTYYASWAKGRLTISKDTSKNQVVLTMTNMDPVDTATYYCARGVPAYSHGGDLWGQGTLVTVSSASTKGPSVFPLAPSSKSTSGGTAALGCLVKDYFPEPVTVSWNSGALTSGVHTFPAVLQSSGLYSLSSVVTVPSSSLGTQTYICNVNHKPSNTKVDKKVEPKSCDKTHTCPPCPALELLTGPSVFLFPPKPKDTLMISRTPEVTCVVVDVSDEDPEVKFNWYVDGVEVHNAKTKPREEQYNSTYRVVSVLTVLHQDWLNGKEYKCKVSNKALPKPIEKTISKAKGQPREPQVYTLPPSREEMTKNQVSLTCLVKGFYPSDIAVEWESNGQPENNYKTTPPVLDSDGSFFLYSKLTVDKSRWQQGNVFSCSVMHEALHNHYTQKSLSLSP light: DIVMTQSPATLSLSPGERATLSCTSSQSVYHANWLSWFQQKPGQPPKLLIYWASTLAYGVPSRFSGSGSGTDFTLTISSLQPEDAATYYCAGGYGGGRYAFGQGTKVEIKRTVAAPSVFIFPPSDEQLKSGTASVVCLLNNFYPREAKVQWKVDNALQSGNSQESVTEQDSKDSTYSLSSTLTLSKADYEKHKVYACEVTHQGLSSPVTKSFNRGEC
2 | 1.8 | 0.9 | 1.5 | 1.5 | 0.1 | 1.2 | 1.7 | 1.7 | 0.1 | M103205H795-MY451 / M103202L889-SK1 (antibody, human IgG1, kappa, substitution positions are EU numbers) heavy: QVTLKESGPVLVKPTETLTLTCTVSGIDLSHDDISWVRQAPGKGLEWVGIISYAGSTYYASWAKGRLTISKDTSKNQVVLTMTNMDPVDTATYYCARGVPAYSHGGDLWGQGTLVTVSSASTKGPSVFPLAPSSKSTSGGTAALGCLVKDYFPEPVTVSWNSGALTSGVHTFPAVLQSSGLYSLSSVVTVPSSSLGTQTYICNVNHKPSNTKVDKKVEPKSCDKTHTCPPCPANELLTGPSVFLFPPKPKDTLMISRTPEVTCVVVDVSDEDPEVKFNWYVDGVEVHNAKTKPREEQYNSTYRVVSVLTVLHQDWLNGKEYKCKVSNKALPKPIEKTISKAKGQPREPQVYTLPPSREEMTKNQVSLTCLVKGFYPSDIAVEWESNGQPENNYKTTPPVLDSDGSFFLYSKLTVDKSRWQQGNVFSCSVMHEALHNHYTQKSLSLSP light: DIVMTQSPATLSLSPGERATLSCTSSQSVYHANWLSWFQQKPGQPPKLLIYWASTLAYGVPSRFSGSGSGTDFTLTISSLQPEDAATYYCAGGYGGGRYAFGQGTKVEIKRTVAAPSVFIFPPSDEQLKSGTASVVCLLNNFYPREAKVQWKVDNALQSGNSQESVTEQDSKDSTYSLSSTLTLSKADYEKHKVYACEVTHQGLSSPVTKSFNRGEC
3 | 6.4 | 2.3 | 9.3 | 7.7 | 0.3 | 4.6 | 5.8 | 9.2 | 0.3 | M103205H795-MY450 / M103202L889-SK1 (antibody, human IgG1, kappa, substitution positions are EU numbers) heavy: QVTLKESGPVLVKPTETLTLTCTVSGIDLSHDDISWVRQAPGKGLEWVGIISYAGSTYYASWAKGRLTISKDTSKNQVVLTMTNMDPVDTATYYCARGVPAYSHGGDLWGQGTLVTVSSASTKGPSVFPLAPSSKSTSGGTAALGCLVKDYFPEPVTVSWNSGALTSGVHTFPAVLQSSGLYSLSSVVTVPSSSLGTQTYICNVNHKPSNTKVDKKVEPKSCDKTHTCPPCPAMELLTGPSVFLFPPKPKDTLMISRTPEVTCVVVDVSDEDPEVKFNWYVDGVEVHNAKTKPREEQYNSTYRVVSVLTVLHQDWLNGKEYKCKVSNKALPKPIEKTISKAKGQPREPQVYTLPPSREEMTKNQVSLTCLVKGFYPSDIAVEWESNGQPENNYKTTPPVLDSDGSFFLYSKLTVDKSRWQQGNVFSCSVMHEALHNHYTQKSLSLSP light: DIVMTQSPATLSLSPGERATLSCTSSQSVYHANWLSWFQQKPGQPPKLLIYWASTLAYGVPSRFSGSGSGTDFTLTISSLQPEDAATYYCAGGYGGGRYAFGQGTKVEIKRTVAAPSVFIFPPSDEQLKSGTASVVCLLNNFYPREAKVQWKVDNALQSGNSQESVTEQDSKDSTYSLSSTLTLSKADYEKHKVYACEVTHQGLSSPVTKSFNRGEC
